The values below are quoted from earlier work in article PMC2990782 (Gene therapy, 2010).

The conditions of the data set: i.v. dosed polyplex; ref [22].

Regarding PEG-Cys-Trp-Lys18, the “time to complete metabolism of plasmid DNA in the circulation” value is no more than 3 min.
